According to US20220315554A1, “COMPOUNDS COMPRISING A […] LIGAND AND USE THEREOF” (priority 2019, published 2022):
Numbered stars: 1 amine (or outer) side, 2 acyl side, 3 side chain; on linkers, the order of the positions; unused ones are H or OH. Bridge positions count the residues as written; N and C are the ends. * marks the point of attachment. mXylylene = c1cc(C[*:1])cc(C[*:2])c1; Hexanoyl = CCCCCC(=O)*

T1: Recombinant human FAP (R&D systems, #3715-SE) (human)
T1 sequence: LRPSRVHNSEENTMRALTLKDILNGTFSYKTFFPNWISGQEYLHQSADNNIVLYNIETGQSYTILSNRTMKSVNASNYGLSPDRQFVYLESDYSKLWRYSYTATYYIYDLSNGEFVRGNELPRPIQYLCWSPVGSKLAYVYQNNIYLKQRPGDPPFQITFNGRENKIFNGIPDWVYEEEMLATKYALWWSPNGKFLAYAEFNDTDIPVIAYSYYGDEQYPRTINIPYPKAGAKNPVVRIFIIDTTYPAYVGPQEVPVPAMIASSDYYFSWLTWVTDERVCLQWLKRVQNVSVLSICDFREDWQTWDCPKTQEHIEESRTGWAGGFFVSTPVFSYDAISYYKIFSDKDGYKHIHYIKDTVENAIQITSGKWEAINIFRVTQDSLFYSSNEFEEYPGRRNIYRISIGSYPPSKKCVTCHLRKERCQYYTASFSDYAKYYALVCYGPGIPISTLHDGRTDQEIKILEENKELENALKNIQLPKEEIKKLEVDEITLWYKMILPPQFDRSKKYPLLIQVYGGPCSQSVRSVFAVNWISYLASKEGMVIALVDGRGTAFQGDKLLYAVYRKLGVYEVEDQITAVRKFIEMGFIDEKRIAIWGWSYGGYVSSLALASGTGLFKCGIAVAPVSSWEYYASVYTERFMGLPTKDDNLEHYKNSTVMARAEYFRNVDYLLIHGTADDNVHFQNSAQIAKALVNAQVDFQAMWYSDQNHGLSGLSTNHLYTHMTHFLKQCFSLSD


Experiments:
[1] = biological target: Recombinant human DPP4 (R&D systems, #9168-SE) (human)
[2] = biological target: recombinant human PREP (R&D systems, #4308-SE) (human)
[3] = biological target: T1, Recombinant human FAP (R&D systems, #3715-SE) (human)
[4] = biological target: human fibroblast activation protein (FAP) on FAP-expressing human WI-38 fibroblasts (human); assay: competition FACS, WI-38 cells, vs Cy5-labeled compound; D: pIC50 ≤6.0; conditions: remark: other sources report otherwise

Sequence of recombinant human PREP (R&D systems, #4308-SE) (human) (chain, as listed by the source limits assumed): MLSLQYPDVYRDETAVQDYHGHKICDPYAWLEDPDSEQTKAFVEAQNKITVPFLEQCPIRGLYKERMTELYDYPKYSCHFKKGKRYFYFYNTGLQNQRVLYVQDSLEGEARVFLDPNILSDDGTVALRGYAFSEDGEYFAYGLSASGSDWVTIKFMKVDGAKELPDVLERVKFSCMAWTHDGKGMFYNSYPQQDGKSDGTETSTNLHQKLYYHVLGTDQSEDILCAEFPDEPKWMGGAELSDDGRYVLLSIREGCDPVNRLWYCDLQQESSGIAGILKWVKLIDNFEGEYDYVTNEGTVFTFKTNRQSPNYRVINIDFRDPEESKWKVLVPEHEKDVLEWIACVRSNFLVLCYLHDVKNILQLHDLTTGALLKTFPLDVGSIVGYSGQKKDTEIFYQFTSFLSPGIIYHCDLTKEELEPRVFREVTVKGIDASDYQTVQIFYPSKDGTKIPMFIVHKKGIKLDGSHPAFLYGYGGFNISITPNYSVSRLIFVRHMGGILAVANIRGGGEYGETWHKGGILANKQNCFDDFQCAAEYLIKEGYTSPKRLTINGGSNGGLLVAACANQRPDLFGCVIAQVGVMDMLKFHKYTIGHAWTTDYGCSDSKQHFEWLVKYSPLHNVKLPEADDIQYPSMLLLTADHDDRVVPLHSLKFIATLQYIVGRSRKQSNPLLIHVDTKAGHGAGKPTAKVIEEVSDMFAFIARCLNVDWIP

Binder | pIC50 (DPP4) [1] | pIC50 (PREP) [2] | pIC50 Category (Activity) [3] | pIC50 Category (FACS) [4]
CPPTEFC (N-terminal Hex; Cys1 and Cys7 linked as thioethers via 3MeBn; C-terminal NH2) [Hex-[Cys(3MeBn)-Pro-Pro-Thr-Glu-Phe-Cys]-NH2 (3BP-3287)] | < 6 pIC50 | < 6 pIC50 | – | –
Hexanoyl-CPPTEFCD-NH2 (linker 1-7 via mXylylene; not fully specified (residue 5); printed as Hex-[Cys(3MeBn)-Pro-Pro-Thr-Glu(NH-Apr-DOTA')-Phe-Cys]-Asp-NH2) [Hex-[Cys(3MeBn)-Pro-Pro-Thr-Glu(NH-Apr-DOTA')-Phe-Cys]-Asp-NH2] | – | – | < 6 pIC50 | < 6 pIC50
Hexanoyl-CPPTEAC-NH2 (linker 1-7 via mXylylene; SMILES CCCCCC(=O)N[C@H]1CSCc2cccc(c2)CSC[C@@H](C(N)=O)NC(=O)[C@H](C)NC(=O)[C@H](CCC(=O)O)NC(=O)[C@H]([C@@H](C)O)NC(=O)[C@@H]2CCCN2C(=O)[C@@H]2CCCN2C1=O) [Hex-[Cys(3MeBn)-Pro-Pro-Thr-Glu-Ala-Cys]-NH2] | – | – | – | < 6 pIC50

Next, values leading:

pIC50 (DPP4) [1] | pIC50 (PREP) [2] | pIC50 Category (Activity) [3] | pIC50 Category (FACS) [4] | Binder
< 6 pIC50 | < 6 pIC50 | – | – | CPPTQFCD (N-terminal Hex; Cys1 and Cys7 linked as thioethers via tMeBn(DOTA-AET); C-terminal NH2) [Hex-[Cys(tMeBn(DOTA-AET))-Pro-Pro-Thr-Gln-Phe-Cys]-Asp-NH2 (3BP-3426)]
< 6 pIC50 | < 6 pIC50 | – | – | CPPTQFCD (N-terminal Hex; Cys1 and Cys7 linked as thioethers via 3MeBn; C-terminal NH2) [Hex-[Cys(3MeBn)-Pro-Pro-Thr-Gln-Phe-Cys]-Asp-NH2 (3BP-3476)]
